± gives the uncertainty stated by the source.
Assay: amyloid nucleation score (Sup35N fusion, yeast selection) (log enrichment); library NNK2; higher = more nucleation; inactive = no reads after selection
Method in brief: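 In psi-negative yeast, Sup35N fusions carrying peptides of 20 random codons were induced with 100 μM copper sulfate for 24 hours. The cells then grew 7 days at 30°C on medium lacking adenine and uracil, and plasmid inserts from input and output were Illumina-sequenced, excluding sequences with under 100 input reads. Nucleation score is the DiMSum log enrichment of output over input reads, centred on the mode score of non-aggregating sequences.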
For VGSFIFLLRCWLSCAIAGVQ, the amyloid nucleation score was -0.323 ± 0.65. In the case of VGSGGKGSMFYGYIELIFM, the amyloid nucleation score is reported as -0.641 ± 1.1. For VGYFLKAMETCVTSLL, the amyloid nucleation score was “inactive”. Work on VGYIQGFERTYL yielded an amyloid nucleation score of -0.42 ± 0.76. With VGYLALQFLVRCMY the amyloid nucleation score was “inactive”. Work on VHAPLLRRPNVLHTKLH yielded an amyloid nucleation score of 0.112 ± 1.1. With VHCREWEIIRMINLSRKQRV the amyloid nucleation score was -0.419 ± 0.46. VHDRLRLGWGAYGYPFGVLM showed an amyloid nucleation score of 0.027 ± 1. VHLVSLSLNKTLYDFLTGMG showed an amyloid nucleation score of -0.178 ± 0.35. Substance VHVWWANVIRVMYNHVRSDW has an amyloid nucleation score of 0.133 ± 0.34. For VHYVFSCCNKLPSANSRWGL, the amyloid nucleation score was 6.718 ± 0.066. In the case of VIAGDTQGMSRGWFLGVLPW, the amyloid nucleation score is reported as “inactive”. Work on VICRGITVARWSF yielded an amyloid nucleation score of 3.58 ± 0.065. Work on VIDTCGDVNRSRGQVLSGGV yielded an amyloid nucleation score of 0.293 ± 0.3. In the case of VIFYRSFTVS, the amyloid nucleation score is reported as 3.64 ± 0.053. With VIILRTPYVCSHYWSDPTVL the amyloid nucleation score was -0.138 ± 0.56. With VIKFFNLREQFFVIIMAYGF the amyloid nucleation score was “inactive”. VILMDMYHAGNSAMCLACGN gave an amyloid nucleation score of -0.119 ± 0.49. In the case of VILRVIGIIMRDNKFSHDVR, the amyloid nucleation score is reported as “inactive”. For VIMSGHSNRHWRSGLERMAG, the amyloid nucleation score was 0.823 ± 0.27. Work on VIQNYL yielded an amyloid nucleation score of -0.624 ± 0.39. Substance VIRSLSFLSYIWVDKGVGVV has an amyloid nucleation score of -0.89 ± 0.53. VIRVESCPVYFYLTTRTAGS gave an amyloid nucleation score of 0.633 ± 0.8. VIRVLSMLFFSRVLVPVNSK gave an amyloid nucleation score of 0.151 ± 0.62. Substance VISCQKPGDIKTYNRVGTTD has an amyloid nucleation score of -0.35 ± 0.23. With VISKYDWFK the amyloid nucleation score was -0.255 ± 1.1. Substance VIYSELGYHREPVLCG has an amyloid nucleation score of -0.972 ± 0.49. In the case of VIYVPLGKNLKIFSKHSFFG, the amyloid nucleation score is reported as -0.906 ± 0.76. Substance VKASFS has an amyloid nucleation score of 0.798 ± 0.44. In the case of VKEVRLPGTRILGRLAGSFR, the amyloid nucleation score is reported as “inactive”. For VKFVLQVYYGVPST, the amyloid nucleation score was 0.307 ± 0.27. In the case of VKFWYWAVDLDSCVRCGDGA, the amyloid nucleation score is reported as 6.586 ± 0.049. With VKHTFLRKFWMHRSIESYGH the amyloid nucleation score was -0.111 ± 0.38. In the case of VKITGPRWLATIICYMFR, the amyloid nucleation score is reported as 6.47 ± 0.075. VKIYVFSFFMEL gave an amyloid nucleation score of 3.7 ± 0.12. With VKLIGKITELGKNRMLMLWT the amyloid nucleation score was 0.429 ± 0.28. In the case of VKPWFS, the amyloid nucleation score is reported as -0.145 ± 1.1. VKRVFGYCFIEGLSKDVFHG gave an amyloid nucleation score of 6.351 ± 0.043. For VKWACNMLSI, the amyloid nucleation score was -0.676 ± 0.48. With VKWLYTLDSNFVLVFVPCLT the amyloid nucleation score was -0.078 ± 0.39. Work on VLAFRFYFAVVLGLMIVYG yielded an amyloid nucleation score of -0.16 ± 0.62. In the case of VLCFCRDFLFVLIQNPFTFP, the amyloid nucleation score is reported as “inactive”. Work on VLCGNSFMNCCSAFRCGSAV yielded an amyloid nucleation score of 8.923 ± 0.059. Substance VLEITLCG has an amyloid nucleation score of 0.834 ± 0.46. Work on VLFAWSASDVIVV yielded an amyloid nucleation score of 0.639 ± 0.33. In the case of VLFKIIRLRLENIPSSWWVI, the amyloid nucleation score is reported as 0.152 ± 0.32. Work on VLFNKSLLRWSNWLV yielded an amyloid nucleation score of 0.166 ± 0.26. In the case of VLGNGYPD, the amyloid nucleation score is reported as -0.19 ± 1.1. In the case of VLLKLVDLWL, the amyloid nucleation score is reported as -0.017 ± 0.54. VLMASSLITVSICVPRTWAY gave an amyloid nucleation score of 6.172 ± 0.041. VLNCNRYFRCSANNIEASES showed an amyloid nucleation score of 0.27 ± 0.56. VLNSPVFFHSYRSMVSLM showed an amyloid nucleation score of -0.117 ± 0.3. Substance VLRANGCWLFMLHNLIYLWL has an amyloid nucleation score of 0.172 ± 0.65. Work on VLSENITSLISKCYCFKSHL yielded an amyloid nucleation score of 6.021 ± 0.038. For VLSMDLQVIRSWKICSVSRK, the amyloid nucleation score was 0.799 ± 0.17. VLSRVDQSTGVIGQTGMVAC showed an amyloid nucleation score of 0.6 ± 0.17. Work on VLSVGAGKYGLSLISSTTTI yielded an amyloid nucleation score of 1.28 ± 0.66. In the case of VLSVSWYAYCVSMMFIKNWA, the amyloid nucleation score is reported as 0.697 ± 0.19. VLTDSCKFYCELCQLNREVY showed an amyloid nucleation score of 0.443 ± 0.36. For VLTSNTANIGTLHLINIRFH, the amyloid nucleation score was 8.173 ± 0.026. With VLTVN the amyloid nucleation score was “inactive”. VLVFEVPFMFNGAFTMGCIR gave an amyloid nucleation score of 7.075 ± 0.067. For VLVNKGLTMHFACSYV, the amyloid nucleation score was 0.547 ± 0.81. VLYWCPRDSKTWLSGRLLPM gave an amyloid nucleation score of 1.33 ± 0.47. In the case of VMDCLMLSNMHLYIVLESKS, the amyloid nucleation score is reported as 5.08 ± 0.061. VMILGVYKNFMLIFELVPVY gave an amyloid nucleation score of -1.01 ± 0.76. VMMNSCNCRSYTLYLL showed an amyloid nucleation score of 9.183 ± 0.075. VMNMRLLRANLPWTLAWRVQ showed an amyloid nucleation score of 0.122 ± 0.35. For VMPGSLCLVRVFFCIMHVLY, the amyloid nucleation score was “inactive”. Work on VMRLFIGAGIGRAEL yielded an amyloid nucleation score of 5.63 ± 0.059. VMWASERWYANETNSHLFSL gave an amyloid nucleation score of -0.105 ± 0.26. Substance VMYLLNFNIMGGLSRIIGGI has an amyloid nucleation score of 6.47 ± 0.049. VMYMASSLHYTEEPSTSIMT showed an amyloid nucleation score of -0.243 ± 0.27. Substance VNASD has an amyloid nucleation score of 2.3 ± 0.25. For VNDLWRDSHNYFCTNGGNIR, the amyloid nucleation score was “inactive”. For VNFLGWSLVGKCRFQFWTVR, the amyloid nucleation score was “inactive”. VNGPEDPPVHKLMKSTRRSC showed an amyloid nucleation score of 2.79 ± 0.088. Work on VNGTTGRSCNKNLDVFNSSI yielded an amyloid nucleation score of -0.35 ± 1.1. VNGYIPRNAAVGQYATRALK gave an amyloid nucleation score of -0.032 ± 1.1. In the case of VNKQNPGVYFLHRGFFVLSR, the amyloid nucleation score is reported as -1.57 ± 0.78. In the case of VNLLLMVWRGLLLARTGRSG, the amyloid nucleation score is reported as 1.96 ± 0.11. With VNNYWNDSCARSLNMGRTGR the amyloid nucleation score was 0.791 ± 0.27. VNRAR gave an amyloid nucleation score of -0.545 ± 0.63. VNSDYMGIGL showed an amyloid nucleation score of -0.272 ± 1.1. Work on VNSLFDWNRAKFLIR yielded an amyloid nucleation score of -1.39 ± 0.79.

Source: the supplement of paper PMC12042874
